Literature values in article PMC5218898.

Assays:
[1] = molecular target: EnvZ (Escherichia coli) (UniProt P0AEJ4)
[2] = molecular target: RstB (Escherichia coli) (UniProt P18392)

| Kd [2] | Substance | Kd [1] |
| --- | --- | --- |
|  | EnvZ (from UniProt P0AEJ4) | 300 nM |
| 300 nM | RstB (from UniProt P18392) |  |
